This is an account of results in publication PMC6768288, “Biochemical and structural characterization of tyrosine aminotransferase suggests broad substrate specificity and a two‐state folding mechanism in Leishmania donovani” (FEBS Open Bio, 2019).

What all share (assay): purified protein
What all share (format): biochemical, Leishmania donovani

Substrate in data set [1]: N[C@@H](Cc1ccccc1)C(=O)O
Conditions: co-substrate sodium pyruvate 100 mM; Phe 0-7 mM; PLP 30 μM, 37 °C.

Substrate in data set [2]: N[C@@H](Cc1ccc(O)cc1)C(=O)O
As to conditions: co-substrate sodium pyruvate 100 mM; Tyr 0-7 mM; PLP 30 μM, 37 °C.

Substrate in data set [3]: N[C@@H](Cc1c[nH]c2ccccc12)C(=O)O
As to conditions: co-substrate sodium pyruvate 100 mM; Trp 0-7 mM; PLP 30 μM, 37 °C.

Substrate in data set [4]: CC(=O)C(=O)O
Conditions: co-substrate Tyr 4 mM; sodium pyruvate 0-200 mM; PLP 30 μM, 37 °C.

Substrate in data set [5]: Cc1ncc(COP(=O)(O)O)c(C=O)c1O
As to conditions: tyrosine-sodium pyruvate as substrates; covalent internal aldimine with K286; varied: cofactor.

Substrate in data set [6]: CSCCC(=O)C(=O)O
As to conditions: co-substrate Tyr 4 mM; KMB 0-4.5 μM; PLP 30 μM, 37 °C.

B1: LdTAT (Leishmania donovani) (protein)
chain: MTIDTQAAPAAQTLKAGNATGSLTEERREVEQQRAAENTSFRRIASSKHAQRTLQPLNNLTDNMKPSRSTKSNLRLSIGDPTVDGNLKTPDIVTEAMVDIVRSGKFNGYPPTVGADNLRQVVSTYWRRFCQTKSRQEALKWENVIITSGVSQAIVLALTALCNEGDNILVCAPSFPHYKSVCDSYGIECRYYYLDPSKSWECDLRAAAGMVDSHTKAFVIINPSNPCGSNFSRAHVSDIIDFCQQHQIPLISDEIYAEMVLNNGIFTSVADFDTNVPRLILGGTAKYQVCPGWRVGWSILIDPMNVAGDWAVGMERLTQLIAGVNSICQEAIARTLLKCPAECTEHIVTQLEAGAKVYARLLEHDIGISMEAPQASMFVMLKLNLSYFQDLKSDMEFYEKLLDEENVQVLPGEIFGMSGFLRATVSRPSAVLNEAVDRIIEFCERHKK
notes: full-length ORF 1347 bp (448 residues from ORF length) amplified from L. donovani genomic DNA; pET28a(+) BamHI/HindIII, His-tagged, E. coli BL21, Ni-NTA
The Km is the concentration of substrate that gives half-maximal velocity. For orientation: Vmax means the rate approached at saturating substrate. With B1, the Km in “purified protein [1]” stood at 3.752 ± 0.96 mM; in “purified protein [2]”, 3.5 ± 0.90 mM; in the data set “purified protein [3]”, 5.055 ± 0.42 mM; in “purified protein [4]”, 42.67 ± 0.38 mM; in “purified protein [5]”, 0.02359 ± 0.00399 mM; in “purified protein [6]” it was 0.0008103 ± 0.00011 mM. In addition, the Vmax was determined as 19800 µM/min/mg in “purified protein [1]”; 11700 µM/min/mg in the data set “purified protein [2]”; 19900 µM/min/mg in “purified protein [3]”; 8600 µM/min/mg in the data set “purified protein [4]”; 1850 µM/min/mg in “purified protein [6]”.
